Data published in PMC8874921, “Evolved DNA Duplex Readers for Strand-Asymmetrically Modified 5-Hydroxymethylcytosine/5-Methylcytosine CpG Dyads”.

Molecular target: wt MeCP2 MBD (Homo sapiens, UniProt P51608 90-181)
Experiment: EMSA; EMSA; unlabeled oligo-dA/dT duplex (o2968/o2969) listed as binding trap; buffer, salt, pH and temperature not shown in the material
Conditions: protein: recombinant, tags: N-terminal FLAG-MBP-FactorXa-TEV, C-terminal 7xHis, label: 6-FAM 5' strand 1

Sequence of wt MeCP2 MBD (P51608 90-181): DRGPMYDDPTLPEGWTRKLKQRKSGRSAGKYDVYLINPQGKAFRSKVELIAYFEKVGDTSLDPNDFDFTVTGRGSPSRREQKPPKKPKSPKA

Row | Binder | Kd (blunt) [nM] | Kd [nM]
1 | hmC/C oligo-dA/dT (EMSA) (dsDNA, 5hmC at C12 of strand 1 (o3115); strand 2 unmodified (o2904)) DNA 1: AAAAAAAAAAACGAAAAAAAAAAA DNA 2: TTTTTTTTTTTCGTTTTTTTTTTT | 211 ± 19.5 | –
2 | hmC/hmC oligo-dA/dT (EMSA) (dsDNA, 5hmC at C12 of strand 1 (o3115); 5hmC at C12 of strand 2 (o3112)) DNA 1: AAAAAAAAAAACGAAAAAAAAAAA DNA 2: TTTTTTTTTTTCGTTTTTTTTTTT | – | 198 ± 39.1
3 | mC/mC oligo-dA/dT (EMSA) (dsDNA, 5mC at C12 of strand 1 (o2967); 5mC at C12 of strand 2 (o2909)) DNA 1: AAAAAAAAAAACGAAAAAAAAAAA DNA 2: TTTTTTTTTTTCGTTTTTTTTTTT | 3.9 ± 0.636 | –
4 | C/mC oligo-dA/dT (EMSA) (dsDNA, 5mC at C12 of strand 1 (o2967); strand 2 unmodified (o2904)) DNA 1: AAAAAAAAAAACGAAAAAAAAAAA DNA 2: TTTTTTTTTTTCGTTTTTTTTTTT | 43.8 ± 3.64 | –
5 | hmC/mC oligo-dA/dT (EMSA) (dsDNA, 5hmC at C12 of strand 1 (o3115); 5mC at C12 of strand 2 (o2909)) DNA 1: AAAAAAAAAAACGAAAAAAAAAAA DNA 2: TTTTTTTTTTTCGTTTTTTTTTTT | 47.4 ± 12.4 | –
